In patent US20110263454A1, “Methods of Identifying Functional Characteristics of Promoters, Transcription Modifying Proteins and Transcription Modulating Agents” (Salk Institute for Biological Studies, priority 2008, published 2011):

B1: CTF3: COUP-TF3 (NR2F6), cDNA driver (protein, UniProt P10588 1-404, looked up)
Nuclear receptor subfamily 2 …: MAMVTGGWGGPGGDTNGVDKAGGYPRAAEDDSASPPGAASDAEPGDEERPGLQVDCVVCGDKSSGKHYGVFTCEGCKSFFKRSIRRNLSYTCRSNRDCQIDQHHRNQCQYCRLKKCFRVGMRKEAVQRGRIPHSLPGAVAASSGSPPGSALAAVASGGDLFPGQPVSELIAQLLRAEPYPAAAGRFGAGGGAAGAVLGIDNVCELAARLLFSTVEWARHAPFFPELPVADQVALLRLSWSELFVLNAAQAALPLHTAPLLAAAGLHAAPMAAERAVAFMDQVRAFQEQVDKLGRLQVDSAEYGCLKAIALFTPDACGLSDPAHVESLQEKAQVALTEYVRAQYPSQPQRFGRLLLRLPALRAVPASLISQLFFMRLVGKTPIETLIRDMLLSGSTFNWPYGSGQ
B2: hMR: Mineralocorticoid Receptor (NR3C2, MR), cDNA driver (protein, UniProt P08235 1-984, looked up)
Mineralocorticoid receptor: METKGYHSLPEGLDMERRWGQVSQAVERSSLGPTERTDENNYMEIVNVSCVSGAIPNNSTQGSSKEKQELLPCLQQDNNRPGILTSDIKTELESKELSATVAESMGLYMDSVRDADYSYEQQNQQGSMSPAKIYQNVEQLVKFYKGNGHRPSTLSCVNTPLRSFMSDSGSSVNGGVMRAVVKSPIMCHEKSPSVCSPLNMTSSVCSPAGINSVSSTTASFGSFPVHSPITQGTPLTCSPNVENRGSRSHSPAHASNVGSPLSSPLSSMKSSISSPPSHCSVKSPVSSPNNVTLRSSVSSPANINNSRCSVSSPSNTNNRSTLSSPAASTVGSICSPVNNAFSYTASGTSAGSSTLRDVVPSPDTQEKGAQEVPFPKTEEVESAISNGVTGQLNIVQYIKPEPDGAFSSSCLGGNSKINSDSSFSVPIKQESTKHSCSGTSFKGNPTVNPFPFMDGSYFSFMDDKDYYSLSGILGPPVPGFDGNCEGSGFPVGIKQEPDDGSYYPEASIPSSAIVGVNSGGQSFHYRIGAQGTISLSRSARDQSFQHLSSFPPVNTLVESWKSHGDLSSRRSDGYPVLEYIPENVSSSTLRSVSTGSSRPSKICLVCGDEASGCHYGVVTCGSCKVFFKRAVEGQHNYLCAGRNDCIIDKIRRKNCPACRLQKCLQAGMNLGARKSKKLGKLKGIHEEQPQQQQPPPPPPPPQSPEEGTTYIAPAKEPSVNTALVPQLSTISRALTPSPVMVLENIEPEIVYAGYDSSKPDTAENLLSTLNRLAGKQMIQVVKWAKVLPGFKNLPLEDQITLIQYSWMCLSSFALSWRSYKHTNSQFLYFAPDLVFNEEKMHQSAMYELCQGMHQISLQFVRLQLTFEEYTIMKVLLLLSTIPKDGLKSQAAFEEMRTNYIKELRKMVTKCPNNSGQSWQRFYQLTKLLDSMHDLVSDLLEFCFYTFRESHALKVEFPAMLVEIISDQLPKVESGNAKPLYFHRK
B3: PR: Progesterone Receptor (NR3C3), cDNA driver (protein, UniProt P06401 1-933, looked up)
Progesterone receptor: MTELKAKGPRAPHVAGGPPSPEVGSPLLCRPAAGPFPGSQTSDTLPEVSAIPISLDGLLFPRPCQGQDPSDEKTQDQQSLSDVEGAYSRAEATRGAGGSSSSPPEKDSGLLDSVLDTLLAPSGPGQSQPSPPACEVTSSWCLFGPELPEDPPAAPATQRVLSPLMSRSGCKVGDSSGTAAAHKVLPRGLSPARQLLLPASESPHWSGAPVKPSPQAAAVEVEEEDGSESEESAGPLLKGKPRALGGAAAGGGAAAVPPGAAAGGVALVPKEDSRFSAPRVALVEQDAPMAPGRSPLATTVMDFIHVPILPLNHALLAARTRQLLEDESYDGGAGAASAFAPPRSSPCASSTPVAVGDFPDCAYPPDAEPKDDAYPLYSDFQPPALKIKEEEEGAEASARSPRSYLVAGANPAAFPDFPLGPPPPLPPRATPSRPGEAAVTAAPASASVSSASSSGSTLECILYKAEGAPPQQGPFAPPPCKAPGASGCLLPRDGLPSTSASAAAAGAAPALYPALGLNGLPQLGYQAAVLKEGLPQVYPPYLNYLRPDSEASQSPQYSFESLPQKICLICGDEASGCHYGVLTCGSCKVFFKRAMEGQHNYLCAGRNDCIVDKIRRKNCPACRLRKCCQAGMVLGGRKFKKFNKVRVVRALDAVALPQPVGVPNESQALSQRFTFSPGQDIQLIPPLINLLMSIEPDVIYAGHDNTKPDTSSSLLTSLNQLGERQLLSVVKWSKSLPGFRNLHIDDQITLIQYSWMSLMVFGLGWRSYKHVSGQMLYFAPDLILNEQRMKESSFYSLCLTMWQIPQEFVKLQVSQEEFLCMKVLLLLNTIPLEGLRSQTQFEEMRSSYIRELIKAIGLRQKGVVSSSQRFYQLTKLLDNLHDLVKQLHLYCLNTFIQSRALSVEFPEMMSEVIAAQLPKILAGMVKPLLFHKK

What follows are molecules tested on mABCA1 promoter (assay: NHR-promoter luciferase screen, mABCA1 promoter). Settings: ABCA1 promoter; hormone receptor with or without its ligand.
Type: cell-based, mouse
Procedure, shortened: (§1)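 CV-1 cells were co-transfected with 50 ng NHR (homodimer or NHR/RXR heterodimer), 100 ng promoter-luciferase construct and 50 ng LacZ. Luciferase was normalized to LacZ and to a no-NHR/no-ligand control.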

| Molecule | Luc. act., normalized to lacZ |
| --- | --- |
| B1 | 5.6 |
| B2 | 6.8 |
| B3 | 8.9 |

Same assay, conditions: ABCA1 promoter; hormone receptor with or without its ligand; relative to control

| Molecule | Normalized Luc. act., normalized to control |
| --- | --- |
| B1 | 1.0 |
| B2 | 1.2 |
| B3 | 1.6 |

Same assay, conditions: transcription factor +/- ligand; control = 1.00

| Molecule | mABCA1 promoter reporter activity |
| --- | --- |
| B1 | 1.01 |
| B2 | 1.21 |
| B3 | 1.58 |

The molecules below were run on mNPY promoter (assay: NHR-promoter luciferase screen, mNPY promoter). Settings: Table 6d; luciferase activity relative to control (control = 1.00).
Type: cell-based, mouse
Procedure, shortened: as §1

| Molecule | Results of assays of transcription factor (+/- ligand) with mNPY |
| --- | --- |
| B1 | 0.48 |
| B2 | 0.58 |
| B3 | 1.09 |

Same assay, conditions: mNPY promoter; HR component with or without ligand

| Molecule | Luc. act., normalized to lacZ |
| --- | --- |
| B1 | 40.6 |
| B2 | 48.9 |
| B3 | 91.7 |

Same assay, conditions: mNPY promoter; HR component with or without ligand; relative to control

| Molecule | Normalized Luc. act., normalized to control |
| --- | --- |
| B1 | 0.5 |
| B2 | 0.6 |
| B3 | 1.1 |

The molecules below were run on hG6PD promoter (assay: NHR-promoter luciferase screen, hG6PD promoter). Settings: G6PD promoter reporter; co-transfected HR, without or with its ligand.
Type: cell-based, human
Procedure, shortened: as §1

| Molecule | Luc. act., normalized to lacZ |
| --- | --- |
| B1 | 32.5 |
| B2 | 35.2 |
| B3 | 45.4 |

Same assay, conditions: G6PD promoter reporter; co-transfected HR, without or with its ligand; relative to control

| Molecule | Normalized Luc. act., normalized to control |
| --- | --- |
| B1 | 0.9 |
| B2 | 0.9 |
| B3 | 1.2 |

Same assay, conditions: hG6PD promoter-luciferase, CV-1 cells, NHR +/- ligand, control = 1.00

| Molecule | luciferase activity normalized to lacZ activity and to a control, hG6PD |
| --- | --- |
| B1 | 0.87 |
| B2 | 0.94 |
| B3 | 1.22 |

What follows are molecules tested on hPPARg2 promoter (assay: NHR-promoter luciferase screen, hPPARg2 promoter). Settings: PPARG2 promoter; hormone receptor with or without its ligand.
Type: cell-based, human
Procedure, shortened: as §1

| Molecule | Luc. act., normalized to lacZ |
| --- | --- |
| B1 | 1.7 |
| B2 | 1.0 |
| B3 | 1.8 |

Same assay, conditions: PPARG2 promoter; hormone receptor with or without its ligand; relative to control

| Molecule | Normalized Luc. act., normalized to control |
| --- | --- |
| B1 | 0.8 |
| B2 | 0.5 |
| B3 | 0.9 |

Same assay, conditions: Table 6d; luciferase activity relative to control (control = 1.00)

| Molecule | Results of assays of transcription factor (+/- ligand) with hPPARg2 |
| --- | --- |
| B1 | 0.85 |
| B2 | 0.51 |
| B3 | 0.88 |

Each molecule was assayed on Bmal1 promoter (assay: NHR-promoter luciferase screen, Bmal1 promoter). Settings: Bmal1 promoter; HR component without or with ligand.
Type: cell-based, mouse
Procedure, shortened: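 CV-1 cells co-transfected with 50 ng NHR (V5H6-tagged, pcDNA3.1; homodimer or RXR heterodimer), 100 ng Bmal1 promoter-luciferase and 50 ng LacZ. Luciferase was normalized to LacZ and to a no-NHR/ligand control.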

| Molecule | Luc. act., normalized to lacZ | Normalized Luc. act., normalized to control |
| --- | --- | --- |
| B1 | 21.2 | 1.4 |
| B2 | 18.2 | 1.2 |
| B3 | 17.9 | 1.1 |

Same assay, conditions: transcription factor +/- ligand; control = 1.00

| Molecule | mBmal1 promoter reporter activity |
| --- | --- |
| B1 | 1.35 |
| B2 | 1.17 |
| B3 | 1.14 |

The molecules below were run on hTNFa promoter (assay: NHR-promoter luciferase screen, hTNFa promoter). Settings: TNFa promoter; HR component without or with ligand.
Type: cell-based, human
Procedure, shortened: as §1

| Molecule | Luc. act., normalized to lacZ | Normalized Luc. act., normalized to control |
| --- | --- | --- |
| B1 | 932.4 | 0.9 |
| B2 | 614.3 | 0.6 |
| B3 | 1214.8 | 1.2 |

Same assay, conditions: transcription factor +/- ligand; control = 1.00

| Molecule | hTNFa promoter reporter activity |
| --- | --- |
| B1 | 0.95 |
| B2 | 0.62 |
| B3 | 1.24 |
